Here are results for 19 molecules from US20150266962A1 (Pfizer, published 2015).

Positions count from the first letter of the chain named. Numbers in names are those of the source.

In assay [1] the target is T1, cynomolgus monkey IL-13-Rα2 ECD/TM domain with C-terminal Flag tag, on transfected HEK293 cells (cynomolgus monkey, UniProt Q14627 27-363 (human entry)).
T1 construct: also called cyno-IL-13-Rα2; cyno IL-13Rα2; not shown: Flag tag at the C-terminal end
T1 chain: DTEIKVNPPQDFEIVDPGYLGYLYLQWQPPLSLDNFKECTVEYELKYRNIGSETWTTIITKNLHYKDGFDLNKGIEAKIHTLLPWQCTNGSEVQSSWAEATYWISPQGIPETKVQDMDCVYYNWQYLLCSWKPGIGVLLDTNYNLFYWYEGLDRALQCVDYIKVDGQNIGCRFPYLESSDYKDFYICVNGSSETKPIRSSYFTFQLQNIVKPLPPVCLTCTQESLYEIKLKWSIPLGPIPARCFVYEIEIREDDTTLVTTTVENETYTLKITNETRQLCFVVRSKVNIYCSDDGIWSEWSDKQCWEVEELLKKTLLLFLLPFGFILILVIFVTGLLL
Briefly: FACS on HEK293 cells transfected with cyno-IL-13-Rα2 (given as ED50). The protocol:
The ECD/TM domain of cyno IL-13-Rα2 fused with Flag tag at the C-terminal end was cloned into the pSMED2 expression vector. HEK293 suspension cells were transiently transfected with cyno-IL-13-Rα2 containing plasmid and pSMED2 vector (as a mock transfection). The cells were harvested 72 hours later and subjected to FACS analysis. 4 antibodies including ch07, ch08, hu08v1.0/1.0 and hu08v1.1/1.1 were tested. The binding on the cell surface cyno-IL-13-Rα2 was detected with R-Phycoerythrin-labeled goat anti-human or mouse IgG.

The target in assay [2] is T2, recombinant human IL-13 receptor alpha 2 (hIL-13-Rα2) (human, UniProt Q14627 27-343).
T2 construct: Recombinant soluble antigen coated on ELISA plates or used in Biacore; also called rec hIL-13Rα2; rhIL-13Rα2
T2 sequence (looked up): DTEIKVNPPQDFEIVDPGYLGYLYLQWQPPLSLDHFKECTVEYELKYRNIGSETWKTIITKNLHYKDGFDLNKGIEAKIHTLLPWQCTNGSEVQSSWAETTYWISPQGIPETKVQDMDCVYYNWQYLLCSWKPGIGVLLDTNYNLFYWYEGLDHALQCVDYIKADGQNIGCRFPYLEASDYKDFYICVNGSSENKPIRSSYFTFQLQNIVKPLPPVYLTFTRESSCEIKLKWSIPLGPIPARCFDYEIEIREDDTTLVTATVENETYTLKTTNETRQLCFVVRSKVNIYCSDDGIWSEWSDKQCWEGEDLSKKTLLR
Kind of assay: direct ELISA on coated recombinant hIL-13-Rα2. As to the method:
Humanized hu08 binding to recombinant hIL-13-Rα2 was evaluated by a standard direct ELISA. Recombinant hIL-13-Rα2 was coated onto a 96-well plate. Serially diluted chimeric antibodies or humanized antibodies in combinations of heavy and light chains of versions 1.0 and 1.1 e.g. hu08 v1.0 HC/1.0 LC, hu08 v1.0 HC/v1.1 LC, hu08 v1.1 HC/v1.0 LC, and hu08 v1.1 HC/v1.1 LC, were added to the plate and incubated at room temperature for 1-2 hours. The binding was detected by HRP conjugated goat anti-human Ig Kappa.
For orientation: An ELISA detects its analyte on a solid surface through an enzyme-linked reagent.

Assay [3] addresses T2, recombinant human IL-13 receptor alpha …. Kind of assay: competition ELISA on coated recombinant hIL-13-Rα2, competitor biotin-ch08. The protocol: A competition ELISA was performed to assess whether hu08 1.0 and hu08 v1.1 compete with ch08 for IL-13-Rα2 binding. Recombinant hIL-13-Rα2 was coated onto 96-well plates at 50 ul of […] in PBS overnight at 4° C. Plates were then blocked and washed following standard ELISA protocol. A 3-fold serially diluted ch08, hu08 1.0 and hu08 v1.1, and negative control ch07 (2× final concentration) were mixed with biotinylated ch08 (2×EC₅₀). 50 μl of the antibody and biotin-ch08 mixture were added to the plate and incubated for 1 hour at room temperature. The amount of biotin-ch08 bound was detected by HRP conjugated streptavidin.

For assay [4] the target is unchanged. Kind of assay: direct ELISA on rhIL-13Rα2 (given as ED50).
For assay [5] the target is unchanged. Briefly: competition ELISA on plate (recombinant IL-13-Rα2), competitor biotinylated ch07.
Assay [6] has the same target. Briefly: competition ELISA on plate, competitor biotinylated ch07, purified protein.
The target is the same in assay [7]. Briefly: direct ELISA on rhIL-13Rα2, purified protein (given as ED50).
The target is the same in assay [8]. Briefly: competition ELISA on hIL-13-Rα2, competitor biotinylated ch08. As to the method: The binding properties of the cysteine mutants to hIL-13-Rα2 were evaluated by a standard ELISA and a competition ELISA. […] This conclusion was confirmed by a competition ELISA with biotinylated ch08.
Assay [9] shares this target. Kind of assay: standard ELISA on hIL-13-Rα2 (given as ED50).

B1: humanized antibody hu08 v1.1 HC/v1.1 LC (antibody, IgG1, V domains shown)
VH: EVQLVESGGGLVQPGGSLRLSCAASGFTFSRNGMSWVRQTPDKRLEWVATVSSGGSYIYYADSVKGRFTISRDNAKNSLYLQMSSLRAEDTAVYYCARQGTTALATRFFDVWGQGTLVTVSS
VL: DIQMTQSPSSLSASVGDRVTITCKASQDVGTAVAWYQQIPGKAPKLLIYSASYRSTGVPDRFSGSGSGTDFSFIISSLQPEDFATYYCQHHYSAPWTFGGGTKVEIK
notes: hIgG1 constant region and hIgKappa constant region; also called hu08 v1.1/1.1; hu08v1.1/1.1
In the case of B1, the results for the EC50 in assay [1] and in assay [2] were 2.14 nM and 0.198 nM, respectively. Further, the IC50 in assay [3] was 3.16 nM.

B2: humanized antibody hu08 v1.0 HC/v1.1 LC (antibody, IgG1, V domains shown)
VH: B1 VH with T40A, D42G, R44G, S84N
VL: B1 VL
notes: hIgG1 constant region and hIgKappa constant region; also called hu08 v1.0/1.1
With B2, the half-maximal effective concentration (EC50) in assay [2] stood at 0.143 nM. Also, in assay [3], the IC50 was 2.14 nM.

B3: humanized antibody hu08 v1.1 HC/v1.0 LC (antibody, IgG1, V domains shown)
VH: B1 VH
VL: B1 VL with I39K, D60S, S72T, F73L, I74T
notes: hIgG1 constant region and hIgKappa constant region; also called hu08 v1.1/1.0
Consider B3, for which the EC50 in assay [2] was found to be 0.163 nM. The IC50 in assay [3] was 2.56 nM.

B4: hu07 heavy chain v1.5 paired with chimeric light chain (antibody, V domains shown)
VH: EVQLVESGGGLVQPGGSLRLSCAASGFSLTKYGVHWVRQAPGKGLEWVGVKWAGGSTDYNSALMSRFTISKDNAKNSLYLQMNSLRAEDTAVYYCARDHRDAMDYWGQGTLVTVSS
VL: QVVLTQSPAIMSASPGERVTMTCTASLSVSSTYLHWYHQKPGSSPKLWIYSTSNLASGVPARFSGSGSGTSYSLTISSMEAEDAATYYCHQYHRSPLTFGSGTKLELK
notes: hIgG1 constant region; the chimeric light chain is the mu07 VL with human kappa constant region; also called hu07v1.5/kc; hu07 v1.5 paired with chimeric light chain Kc
As to B4, the concentration for a half-maximal effect (EC50) in [4] stood at 0.183 nM. Also, in assay [5], the half-inhibitory concentration (IC50) was 3.03 nM.

B5: hu07 heavy chain v1.5 / light chain v1.1 (antibody, IgG1, V domains shown)
VH: B4 VH
VL: DIQMTQSPSSLSASVGDRVTITCTASLSVSSTYLHWYQQKPGSSPKLLIYSTSNLASGVPSRFSGSGSGTSFTLTISSLQPEDFATYYCHQYHRSPLTFGGGTKVEIK
notes: hIgG1 constant region and hIg Kappa constant region; also called hu07v1.5/v1.1
Regarding B5, the concentration for a half-maximal effect (EC50) in assay [4] is 1.21 nM. Also, the IC50 in assay [5] stood at 46.6 nM.

B6: hu07 heavy chain v1.5 / light chain v1.0 (antibody, IgG1, V domains shown)
VH: B4 VH
VL: B5 VL with S43K, S44A, S71D
notes: hIgG1 constant region and hIg Kappa constant region; also called hu07v1.5/v1.0
With B6, in assay [4], the half-maximal effective concentration (EC50) was determined as 0.754 nM. Moreover, the IC50 in assay [5] stood at 62 nM.

B7: humanized antibody hu07 heavy chain v1.5 / light chain v1.7 (antibody, IgG1, V domains shown)
VH: B4 VH
VL: B5 VL with L48W, F72Y
notes: hIgG1/kappa; also called hu07Hv1.5/kv1.7
For the molecule B7, the IC50 in [6] stood at 7.7 nM. In addition, the EC50 in assay [7] came to 0.39 nM.

B8: hu08 with light chain mutation D185A (hu08MAC, unconjugated) (antibody)
heavy: not shown
light: DIQMTQSPSSLSASVGDRVTITCKASQDVGTAVAWYQQKPGKAPKLLIYSASYRSTGVPSRFSGSGSGTDFTLTISSLQPEDFATYYCQHHYSAPWTFGGGTKVEIKRTVAAPSVFIFPPSDEQLKSGTASVVCLLNNFYPREAKVQWKVDNALQSGNSQESVTEQDSKDSTYSLSSTLTLSKAAYEKHKVYACEVTHQGLSSPVTKSFNRGEC
notes: also called hu08/kD185A
As for B8, the 50% inhibitory concentration (IC50) in assay [8] came to 2.36 nM. The EC50 in [9] amounted to 0.108 nM.

B9: hu08v1.0/1.0-Q347C/K183C (antibody, human IgG1, kappa)
heavy: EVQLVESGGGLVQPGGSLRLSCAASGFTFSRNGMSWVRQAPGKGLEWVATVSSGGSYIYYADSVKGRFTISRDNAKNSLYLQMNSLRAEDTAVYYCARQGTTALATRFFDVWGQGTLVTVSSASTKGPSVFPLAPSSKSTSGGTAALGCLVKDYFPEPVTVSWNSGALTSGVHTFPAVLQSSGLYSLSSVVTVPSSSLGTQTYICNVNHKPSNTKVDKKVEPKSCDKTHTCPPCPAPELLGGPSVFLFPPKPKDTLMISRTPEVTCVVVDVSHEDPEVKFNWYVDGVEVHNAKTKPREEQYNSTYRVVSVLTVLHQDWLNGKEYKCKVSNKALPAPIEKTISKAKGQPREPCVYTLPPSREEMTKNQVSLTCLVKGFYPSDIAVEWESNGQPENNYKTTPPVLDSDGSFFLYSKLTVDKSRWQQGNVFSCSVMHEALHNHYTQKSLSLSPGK
light: B8 light with K183C, A185D
notes: also called hu08/Q347C/kK183C; Q347C/kK183C
With B9, the 50% inhibitory concentration (IC50) in assay [8] stood at 2.41 nM. Besides, in assay [9], the EC50 worked out at 0.13 nM.

B10: hu08v1.0/1.0-L443C/A111C (antibody)
heavy: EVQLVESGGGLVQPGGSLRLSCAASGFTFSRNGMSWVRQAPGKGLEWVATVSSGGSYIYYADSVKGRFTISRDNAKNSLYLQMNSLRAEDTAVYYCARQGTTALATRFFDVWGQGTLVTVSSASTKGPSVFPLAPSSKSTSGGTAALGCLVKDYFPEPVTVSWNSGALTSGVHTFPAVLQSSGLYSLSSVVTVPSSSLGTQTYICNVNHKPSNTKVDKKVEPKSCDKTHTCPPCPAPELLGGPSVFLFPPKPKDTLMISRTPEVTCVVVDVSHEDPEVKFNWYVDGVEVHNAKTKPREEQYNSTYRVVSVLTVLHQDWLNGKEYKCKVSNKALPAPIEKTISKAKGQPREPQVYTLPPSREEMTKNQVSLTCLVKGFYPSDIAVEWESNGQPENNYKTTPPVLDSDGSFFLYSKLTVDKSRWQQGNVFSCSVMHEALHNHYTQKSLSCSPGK
light: B8 light with A112C, A185D
notes: also called hu08/L443C/kA111C; L443C/kA111C
On to B10, for which the IC50 in [8] was found to be 2.32 nM. In addition, the EC50 in [9] worked out at 0.12 nM.

B11: hu08v1.0/1.0-K183C (antibody, human IgG1, kappa)
heavy: not shown
light: B8 light with K183C, A185D
notes: also called hu08/kK183C; kK183C
Consider B11, for which, in [8], the IC50 was 2.47 nM. Besides, the concentration for a half-maximal effect (EC50) in [9] was 0.11 nM.

B12: hu08v1.0/1.0-L443C/K183C (antibody)
heavy: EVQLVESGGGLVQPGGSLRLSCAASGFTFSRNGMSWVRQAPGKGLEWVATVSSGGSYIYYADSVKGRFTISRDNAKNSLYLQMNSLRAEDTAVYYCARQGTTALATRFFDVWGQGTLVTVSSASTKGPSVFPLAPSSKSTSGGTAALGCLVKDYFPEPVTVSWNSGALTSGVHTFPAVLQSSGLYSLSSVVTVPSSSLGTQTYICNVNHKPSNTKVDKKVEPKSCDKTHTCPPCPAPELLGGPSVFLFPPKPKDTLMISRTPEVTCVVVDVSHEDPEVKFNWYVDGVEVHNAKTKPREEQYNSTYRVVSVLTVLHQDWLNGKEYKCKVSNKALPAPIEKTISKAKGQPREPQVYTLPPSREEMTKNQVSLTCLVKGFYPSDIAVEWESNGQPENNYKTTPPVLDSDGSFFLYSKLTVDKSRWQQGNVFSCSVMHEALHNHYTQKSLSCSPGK
light: B8 light with K183C, A185D
notes: also called hu08/L443C/kK183C; L443C/kK183C
In the case of B12, the half-maximal inhibitory concentration (IC50) in assay [8] worked out at 2.45 nM. The EC50 in assay [9] is 0.11 nM.

B13: hu08v1.0/1.0-K188C (antibody, human IgG1, kappa)
heavy: not shown
light: B8 light with A185D, K188C
notes: also called hu08/kK188C; kK188C
In the case of B13, in [8], the IC50 worked out at 2.73 nM. Besides, in assay [9], the EC50 was 0.18 nM.

B14: hu08v1.0/1.0-K392C/L443C (antibody)
heavy: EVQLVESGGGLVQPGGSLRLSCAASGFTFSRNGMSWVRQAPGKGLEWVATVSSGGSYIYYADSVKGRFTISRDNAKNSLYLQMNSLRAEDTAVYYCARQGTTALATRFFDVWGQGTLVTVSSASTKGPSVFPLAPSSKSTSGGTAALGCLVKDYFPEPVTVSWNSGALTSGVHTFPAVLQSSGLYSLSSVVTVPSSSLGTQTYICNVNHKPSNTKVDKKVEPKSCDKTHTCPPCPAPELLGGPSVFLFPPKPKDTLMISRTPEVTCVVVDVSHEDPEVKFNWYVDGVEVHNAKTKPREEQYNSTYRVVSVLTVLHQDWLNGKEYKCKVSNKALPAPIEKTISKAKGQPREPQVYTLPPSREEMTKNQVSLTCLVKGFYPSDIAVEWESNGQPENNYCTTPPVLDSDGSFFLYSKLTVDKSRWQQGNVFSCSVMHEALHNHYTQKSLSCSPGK
light: B8 light with A185D
notes: also called hu08/L443C/K392C; L443C/K392C
Take B14: in [8], the concentration for half-maximal inhibition (IC50) turned out to be 2.1 nM. For the same molecule, the EC50 in assay [9] turned out to be 0.09 nM.

B15: hu08v1.0/1.0-L443C (antibody)
heavy: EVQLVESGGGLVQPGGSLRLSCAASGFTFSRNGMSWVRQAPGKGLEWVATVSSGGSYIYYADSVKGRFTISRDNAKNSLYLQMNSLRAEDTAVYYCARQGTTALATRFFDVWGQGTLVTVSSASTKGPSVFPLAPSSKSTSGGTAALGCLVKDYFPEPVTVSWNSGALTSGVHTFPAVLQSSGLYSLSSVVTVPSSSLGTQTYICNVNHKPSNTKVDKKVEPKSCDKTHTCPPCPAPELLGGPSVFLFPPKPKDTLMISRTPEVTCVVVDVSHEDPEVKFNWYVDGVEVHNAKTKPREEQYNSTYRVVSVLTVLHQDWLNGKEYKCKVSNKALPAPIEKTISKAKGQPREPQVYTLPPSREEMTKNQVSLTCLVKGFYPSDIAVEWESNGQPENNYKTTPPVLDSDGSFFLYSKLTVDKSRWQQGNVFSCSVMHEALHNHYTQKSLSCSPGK
light: B8 light with A185D
notes: also called hu08/L443C
For B15, the IC50 in assay [8] was determined as 2.25 nM. Moreover, in assay [9], the EC50 turned out to be 0.1 nM.

B16: hu08v1.0/1.0-A111C (antibody)
heavy: not shown
light: B8 light with A112C, A185D
notes: also called hu08/kA111C; kA111C
For B16, in assay [8], the IC50 was 4.07 nM. For the same molecule, in [9], the 50% effective concentration (EC50) is 0.22 nM.

B17: hu08v1.0/1.0-V422C/L443C (antibody)
heavy: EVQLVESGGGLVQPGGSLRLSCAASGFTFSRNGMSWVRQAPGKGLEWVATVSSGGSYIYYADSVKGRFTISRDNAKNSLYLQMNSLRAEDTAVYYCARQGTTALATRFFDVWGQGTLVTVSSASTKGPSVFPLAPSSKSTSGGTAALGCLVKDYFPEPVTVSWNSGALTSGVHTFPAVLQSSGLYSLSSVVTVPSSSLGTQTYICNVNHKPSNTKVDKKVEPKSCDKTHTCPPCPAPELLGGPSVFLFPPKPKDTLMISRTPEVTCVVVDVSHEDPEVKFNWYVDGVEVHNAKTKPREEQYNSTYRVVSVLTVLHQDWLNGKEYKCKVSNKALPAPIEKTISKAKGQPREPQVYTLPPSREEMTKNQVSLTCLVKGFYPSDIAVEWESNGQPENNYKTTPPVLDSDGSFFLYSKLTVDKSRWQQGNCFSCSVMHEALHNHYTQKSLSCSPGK
light: B8 light with A185D
notes: also called hu08/L443C/V422C; L443C/V422C
For the molecule B17, the IC50 in assay [8] worked out at 2.17 nM. In addition, in assay [9], the EC50 amounted to 0.09 nM.

B18: hu08v1.0/1.0-Q347C/A111C (antibody)
heavy: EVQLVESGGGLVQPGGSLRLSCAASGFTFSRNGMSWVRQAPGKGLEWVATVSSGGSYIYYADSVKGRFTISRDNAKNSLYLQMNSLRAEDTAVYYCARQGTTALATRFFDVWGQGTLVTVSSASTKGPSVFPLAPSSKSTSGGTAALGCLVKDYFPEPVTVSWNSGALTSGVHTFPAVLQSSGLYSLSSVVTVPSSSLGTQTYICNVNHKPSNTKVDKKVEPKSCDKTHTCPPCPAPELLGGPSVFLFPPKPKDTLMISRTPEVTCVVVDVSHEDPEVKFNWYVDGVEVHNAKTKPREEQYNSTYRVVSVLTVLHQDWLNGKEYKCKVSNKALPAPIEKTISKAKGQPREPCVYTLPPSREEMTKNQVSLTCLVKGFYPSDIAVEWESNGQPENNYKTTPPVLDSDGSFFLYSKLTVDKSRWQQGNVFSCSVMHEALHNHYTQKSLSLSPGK
light: B8 light with A112C, A185D
notes: also called hu08/Q347C/kA111C; Q347C/kA111C
B18: in assay [8], the IC50 stood at 2.44 nM. Besides, the EC50 in assay [9] came to 0.1 nM.

B19: hu08v1.0/1.0-Q347C (antibody)
heavy: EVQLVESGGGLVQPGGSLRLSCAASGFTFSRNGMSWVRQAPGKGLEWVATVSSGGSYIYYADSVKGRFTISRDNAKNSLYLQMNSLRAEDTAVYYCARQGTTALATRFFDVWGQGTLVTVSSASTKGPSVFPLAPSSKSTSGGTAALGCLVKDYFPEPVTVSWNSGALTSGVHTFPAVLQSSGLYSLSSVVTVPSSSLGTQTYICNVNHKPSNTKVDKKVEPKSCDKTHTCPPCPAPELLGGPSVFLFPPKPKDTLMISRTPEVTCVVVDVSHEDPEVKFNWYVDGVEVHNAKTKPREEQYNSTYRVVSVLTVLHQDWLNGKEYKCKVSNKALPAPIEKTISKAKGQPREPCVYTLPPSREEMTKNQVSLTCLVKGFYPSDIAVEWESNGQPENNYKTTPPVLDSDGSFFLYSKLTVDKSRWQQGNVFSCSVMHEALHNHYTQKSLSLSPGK
light: B8 light with A185D
notes: also called hu08/Q347C
B19: in [8], the concentration for half-maximal inhibition (IC50) was determined as 2.07 nM. The concentration for a half-maximal effect (EC50) in assay [9] turned out to be 0.1 nM.

The EC50 is the midpoint of the concentration-response curve. As usually defined, the IC50 is the concentration that gives 50% inhibition.
